From patent publication US20040259787A1 (published 2004)

Target: T1, C1q (UniProt P02745 23-245; P02746 28-253; P02747 29-245, radioiodinated (Bolton & Hunter) in the assay of FIG. 2)
T1 construct: mature; Purified native C1q; also called native fluid-phase C1q; radioiodinated C1q
Assay: solid-phase domain, radioiodinated C1q, low salt
Protocol: Microtitre plates were coated with the N-, P-, C- and CUB-domains and with three controls, cC1qR, BSA and Thioredoxin, (8 mg/ml in 35 mM NaHCO3, 15 mM Na2CO3 pH 9.6) for 2 hr at 37° C. Non-specific interactions were blocked by incubation with 10 mM potassium phosphate, 0.5 mM EDTA pH 7.4 containing BSA (10 mg/ml). Any free —SH groups in the samples, due to the presence of the thioredoxin fusion protein, were blocked by a brief washing step using the phosphate buffer containing 2 mM iodoacetamide. […] Wells were washed three times with phosphate buffer and bound radioactivity eluted with 100 ml 4M NaOH and measured.

T1 sequence (P02745 23-245, chain 1 of 3): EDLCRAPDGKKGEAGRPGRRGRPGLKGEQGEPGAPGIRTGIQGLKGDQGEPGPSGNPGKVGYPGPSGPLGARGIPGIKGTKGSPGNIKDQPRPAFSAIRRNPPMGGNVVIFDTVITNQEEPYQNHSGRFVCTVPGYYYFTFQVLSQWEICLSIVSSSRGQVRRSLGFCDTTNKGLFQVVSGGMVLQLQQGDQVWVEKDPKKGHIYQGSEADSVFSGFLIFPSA
T1 sequence (P02746 28-253, chain 2 of 3): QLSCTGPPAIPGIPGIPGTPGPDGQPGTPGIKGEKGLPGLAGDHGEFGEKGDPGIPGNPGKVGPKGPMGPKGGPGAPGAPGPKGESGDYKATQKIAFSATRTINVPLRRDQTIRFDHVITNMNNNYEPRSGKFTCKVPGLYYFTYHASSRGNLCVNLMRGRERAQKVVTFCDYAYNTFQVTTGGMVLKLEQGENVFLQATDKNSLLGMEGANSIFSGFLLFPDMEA
T1 sequence (P02747 29-245, chain 3 of 3): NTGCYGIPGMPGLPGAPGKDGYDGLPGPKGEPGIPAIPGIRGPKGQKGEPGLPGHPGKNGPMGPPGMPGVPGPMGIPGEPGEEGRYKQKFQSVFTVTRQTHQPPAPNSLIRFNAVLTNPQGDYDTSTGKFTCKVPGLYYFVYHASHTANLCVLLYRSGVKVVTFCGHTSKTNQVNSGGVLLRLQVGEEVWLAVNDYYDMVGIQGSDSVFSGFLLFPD

binding result: no binding
B1: recombinant C-domain of human cC1qR/CRT, thioredoxin fusion protein (other)
chain: DNFGVLGLDLWQVKSGTIFDNFLITNDEAYAEEFGNETWGVTKAAEKQMKDKQDEEQRLKEEEEDKKRKEEEEAEDKEDDEDKDEDEEDEEDKEEDEEEDVPGQAKDEL
notes: not shown: thioredoxin fusion partner from plasmid pTrxfus (Invitrogen), expressed in E. coli
